Results published in patent US20230313187A1, “MODIFICATIONS OF MAMMALIAN CELLS USING ARTIFICIAL MICRO-RNA TO ALTER THEIR PROPERTIES AND THE COMPOSITIONS OF THEIR PRODUCTS” (DNA TWOPOINTO INC., priority 2020, published 2023).
Several values for one entry are separate records, joined by “and”; a condition that tells them apart may be missing. Equal entries are not always repeated.

What was measured:
[1] = test system: Cricetulus griseus interferon receptor subunit 1 mRNA and subunit 2 mRNA; assay: Expression of human interferon beta from CHO cells (ELISA), amiRNA to both interferon receptor subunits; assay type: cell-based; details: for Average Titer: average of duplicate cultures; for interferon beta expression compared with the control transposon: control transposon expressed 48 μg/ml; for Titer: 10-day fed batch
Description: One multi-hairpin amiRNA, with nucleotide sequence SEQ ID NO: 600, comprised five hairpins; the first hairpin comprised a guide strand with nucleotide sequence SEQ ID NO: 103, immediately followed by a loop with nucleotide sequence SEQ ID NO: 241 and passenger strand with nucleotide sequence SEQ ID NO: 188; the second hairpin comprised a guide strand with nucleotide sequence SEQ ID NO: 95, immediately followed by a loop with nucleotide sequence SEQ ID NO: 241 and passenger strand with nucleotide sequence SEQ ID NO: 180; the third hairpin comprised a guide strand with nucleotide sequence SEQ ID NO: 104, immediately followed by a loop with nucleotide sequence SEQ ID NO: 241 and a passenger strand with nucleotide sequence SEQ ID NO: 189; the fourth hairpin comprised a guide strand with nucleotide sequence SEQ ID NO: 97, immediately followed by a loop with nucleotide sequence SEQ ID NO: 241 and a passenger strand with nucleotide sequence SEQ ID NO: 182; the fifth hairpin comprised a guide strand with nucleotide sequence SEQ ID NO: 102, immediately followed by a loop with nucleotide sequence SEQ ID NO: 241 and a passenger strand with nucleotide sequence SEQ ID NO: 187. Two of these five guide strand sequences were a 22 base sequence that was an exact reverse complement of a different region within the Cricetulus griseus interferon receptor subunit 1 mRNA (with nucleotide sequence SEQ ID NO: 19); three of these five guide strand sequences were a 22 base sequence that was an exact reverse complement of a different region within the Cricetulus griseus interferon receptor subunit 2 mRNA (with nucleotide sequence SEQ ID NO: 20). Each passenger strand sequence was complementary to its corresponding guide strand sequence, except that the bases in the passenger strand sequences corresponding to the 5′ base of the guide strand and the twelfth base of the guide strand were changed to be non-complementary.
One multi-hairpin amiRNA, with nucleotide sequence SEQ ID NO: 601, comprised four hairpins; the first hairpin comprised a guide strand with nucleotide sequence SEQ ID NO: 101, immediately followed by a loop with nucleotide sequence SEQ ID NO: 241 and passenger strand with nucleotide sequence SEQ ID NO: 186; the second hairpin comprised a guide strand with nucleotide sequence SEQ ID NO: 99, immediately followed by a loop with nucleotide sequence SEQ ID NO: 241 and passenger strand with nucleotide sequence SEQ ID NO: 184; the third hairpin comprised a guide strand with nucleotide sequence SEQ ID NO: 102, immediately followed by a loop with nucleotide sequence SEQ ID NO: 241 and a passenger strand with nucleotide sequence SEQ ID NO: 187; the fourth hairpin comprised a guide strand with nucleotide sequence SEQ ID NO: 106, immediately followed by a loop with nucleotide sequence SEQ ID NO: 241 and a passenger strand with nucleotide sequence SEQ ID NO: 191. Two of these four guide strand sequences were a 22 base sequence that was an exact reverse complement of a different region within the Cricetulus griseus interferon receptor subunit 1 mRNA (with nucleotide sequence SEQ ID NO: 19); two of these four guide strand sequences were a 22 base sequence that was an exact reverse complement of a different region within the Cricetulus griseus interferon receptor subunit 2 mRNA (with nucleotide sequence SEQ ID NO: 20). Each passenger strand sequence was complementary to its corresponding guide strand sequence, except that the bases in the passenger strand sequences corresponding to the 5′ base of the guide strand and the twelfth base of the guide strand were changed to be non-complementary. […]

[2] = test system: Homo sapiens alpha-(1,6)-fucosyl transferase (FUT8) mRNA; assay: Inhibition of antibody fucosylation in HEK cell pools, amiRNA directed toward FUT8; assay type: cell-based
Description: Two different multi-hairpin amiRNA sequences were designed to target genes involved in the fucosylation pathway in human cells: alpha-(1,6)-fucosyl transferase (FUT8), GDP-Mannose 4,6-dehydratase (GMD), and GDP-fucose transporter 1 (GFT). One Multi-hairpin amiRNA, with nucleotide sequence SEQ ID NO: 202 comprised three hairpins; the first hairpin comprised guide strand sequence SEQ ID NO: 29, immediately followed by loop sequence SEQ ID NO: 241 and passenger strand sequence SEQ ID NO: 114, the second hairpin comprised guide strand sequence SEQ ID NO: 30, immediately followed by loop sequence SEQ ID NO: 241 and passenger strand sequence SEQ ID NO: 115, the third hairpin comprised guide strand sequence SEQ ID NO: 31, immediately followed by loop sequence SEQ ID NO: 241 and passenger strand sequence SEQ ID NO: 116. Each of these three guide strand sequences was a 22 base sequence that was an exact reverse complement of a different region within the Homo sapiens alpha-(1,6)-fucosyl transferase (FUT8) mRNA. Each passenger strand sequence was complementary to its corresponding guide strand sequence, except that the bases in the passenger strand sequences corresponding to the 5′ base of the guide strand and the twelfth base of the guide strand were changed to be non-complementary. The first and twelfth bases of guide strand with SEQ ID NO: 29 are T and T respectively, the corresponding bases in the corresponding passenger strand sequence SEQ ID NO: 114 are C and C respectively. The first and twelfth bases of guide strand with SEQ ID NO: 30 are T and T respectively, the corresponding bases in the corresponding passenger strand sequence SEQ ID NO: 115 are C and C respectively. The first and twelfth bases of guide strand with SEQ ID NO: 31 are T and A respectively, the corresponding bases in the corresponding passenger strand sequence SEQ ID NO: 116 are C and C respectively. Each hairpin in multi-hairpin amiRNA nucleotide sequence SEQ ID NO: 202 further comprised additional stem-stabilizing sequences, with stem sequence SEQ ID NO: 255 immediately preceding the guide strand sequence, and stem sequence SEQ ID NO: 256 immediately following the passenger strand sequence. Multi-hairpin amiRNA nucleotide sequence SEQ ID NO: 202 further comprised an unstructured sequence with SEQ ID NO: 251 to the 5′ of the first hairpin, and an unstructured sequence with SEQ ID NO: 253 to the 3′ of the third hairpin. […]
The multi-hairpin amiRNA sequences were placed to the 3′ of an open reading frame encoding a red fluorescent protein (with nucleotide sequence SEQ ID NO: 279) and followed by a rabbit globin polyadenylation sequence. […]

[3] = interferon beta in supernatant, first of duplicate cultures
[4] = interferon beta, second of duplicate cultures

B1: SEQ ID NO: 600: five-hairpin amiRNA, two guides to interferon receptor subunit 1 mRNA and three to subunit 2 mRNA (nucleic acid)
chain: ATCTGATCTTCTGAAGAAAATATATTTCTTTTTATTCATAGCTCTTAACTAGTGGTGATAGCAATGTCAGCAGTGCCTAAGACTATCAGCAAGAACCAGGGTGAAGCCACAGATGCCTGGTTCTTACTGATAGTCTCAAGTAAGGTTGACCATACTCTACTCTAGTTATATTCTTTAGGCACGAATGTGTGTTTAAAAAAAATAAAAACTAGTGGTGATAGCAATGTCAGCAGTGCCTTAAAATAACACACAAGAGCCATGTGAAGCCACAGATGATGGCTCTTGCGTGTTATTTTCAAGTAAGGTTGACCATACTCTACTCTAGAGTTGTGTTTTAATGTATATTAATGTTACTAATGTGTTTACTAGTGGTGATAGCAATGTCAGCAGTGCCTTTGAAGATAACTTTGTCCCCGGGTGAAGCCACAGATGCCGGGGACAACGTTATCTTCACAAGTAAGGTTGACCATACTCTACTCTAGGTTATTTTTAGTATGATTCTGTAAAAATGAATTAATACTAACTAGTGGTGATAGCAATGTCAGCAGTGCCTTTAAACAGTAAGTAGTCTCTGGGTGAAGCCACAGATGCCAGAGACTAATTACTGTTTACAAGTAAGGTTGACCATACTCTACTCTAGATTTTTCAGATGTATCATCTCTTAAAATACTGTAATTGCAACTAGTGGTGATAGCAATGTCAGCAGTGCCTTAAACAACAATGGATCCCCAAAGTGAAGCCACAGATGTTTGGGGATCAATTGTTGTTTCAAGTAAGGTTGACCATACTCTACTCTAGTCAGTTTTATTGATAGTCTTTTCAGTATTATTGATAATCTT
Average Titer [1]: 79.8 µg/mL
interferon beta expression compared with the control transposon [1]: as much as twice the expression levels of interferon beta as the control transposon
Titer [1, 3]: 80.3 µg/mL
Titer [1, 4]: 79.2 µg/mL

B2: SEQ ID NO: 202: three-hairpin amiRNA, guides SEQ ID NOs 29, 30, 31 complementary to Homo sapiens FUT8 mRNA (nucleic acid)
chain: ATCTGATCTTCTGAAGAAAATATATTTCTTTTTATTCATAGCTCTTAACTAGTGGTGATAGCAATGTCAGCAGTGCCTTTGGTCGTTTATCTCTTCCATCGTGAAGCCACAGATGGATGGAAGAGCTAAACGACCACAAGTAAGGTTGACCATACTCTACTCTAGAGTTGTGTTTTAATGTATATTAATGTTACTAATGTGTTTACTAGTGGTGATAGCAATGTCAGCAGTGCCTTTCATCTACAGTTTGGCTGAAAGTGAAGCCACAGATGTTTCAGCCAACCTGTAGATGACAAGTAAGGTTGACCATACTCTACTCTAGGTTATTTTTAGTATGATTCTGTAAAAATGAATTAATACTAACTAGTGGTGATAGCAATGTCAGCAGTGCCTTTAAATTACACAATATGGCAGTGTGAAGCCACAGATGACTGCCATATCGTGTAATTTACAAGTAAGGTTGACCATACTCTACTCTAGTCAGTTTTATTGATAGTCTTTTCAGTATTATTGATAATCTT
G0 + G1 % (area) ([2]; afucosylated antibody, HEK pool, 7-day transient culture, listed as 202): 90 % (area) and 89 % (area)
Titer ([2]; antibody in culture supernatant, HEK pool, 7-day culture, listed as 202): 353 mg/L and 316 mg/L
reduction of antibody fucosylation ([2]; both replicates of HEK cell pools (Table 3 rows 3 and 4)): approximately 90%
G0F + G1F (% area) ([2]; fucosylated antibody, HEK pool, 7-day transient culture, listed as 202): 10 % area and 11 % area

B3: SEQ ID NO: 601: four-hairpin amiRNA, two guides to interferon receptor subunit 1 mRNA and two to subunit 2 mRNA (nucleic acid)
chain: ATCTGATCTTCTGAAGAAAATATATTTCTTTTTATTCATAGCTCTTAACTAGTGGTGATAGCAATGTCAGCAGTGCCTTAGTGTAGACAACAGTACCTCTGTGAAGCCACAGATGAGAGGTACTATTGTCTACACTCAAGTAAGGTTGACCATACTCTACTCTAGTTATATTCTTTAGGCACGAATGTGTGTTTAAAAAAAATAAAAACTAGTGGTGATAGCAATGTCAGCAGTGCCTTTCCACGTCTGTCTTGTCCTACGTGAAGCCACAGATGGTAGGACAAGCCAGACGTGGACAAGTAAGGTTGACCATACTCTACTCTAGAGTTGTGTTTTAATGTATATTAATGTTACTAATGTGTTTACTAGTGGTGATAGCAATGTCAGCAGTGCCTTAAACAACAATGGATCCCCAAAGTGAAGCCACAGATGTTTGGGGATCAATTGTTGTTTCAAGTAAGGTTGACCATACTCTACTCTAGGTTATTTTTAGTATGATTCTGTAAAAATGAATTAATACTAACTAGTGGTGATAGCAATGTCAGCAGTGCCTTAACACAGTACCGCCTTAGTGCGTGAAGCCACAGATGGCACTAAGGCAGTACTGTGTTCAAGTAAGGTTGACCATACTCTACTCTAGTCAGTTTTATTGATAGTCTTTTCAGTATTATTGATAATCTT
Average Titer [1]: 88.0 µg/mL
interferon beta expression compared with the control transposon [1]: as much as twice the expression levels of interferon beta as the control transposon
Titer [1, 3]: 97.3 µg/mL
Titer [1, 4]: 78.6 µg/mL
